Data published in patent US20250042994A1 (HAINAN SIMCERE ZAIMING PHARMACEUTICAL, published 2025).
Positions count from the first letter of the chain named.

T1: human CD19 exon1-3-His tag protein (human, UniProt P15391 20-186, limits assumed)
T1 construct: membrane-distal part of the extracellular region, made in HEK293E cells; not shown: His tag
T1 sequence (looked up): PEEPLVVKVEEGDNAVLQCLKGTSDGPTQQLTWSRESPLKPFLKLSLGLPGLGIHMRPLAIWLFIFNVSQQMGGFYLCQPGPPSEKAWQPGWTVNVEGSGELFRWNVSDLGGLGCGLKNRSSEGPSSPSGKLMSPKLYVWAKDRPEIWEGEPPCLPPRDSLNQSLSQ

T2: Human CD19-his protein (human, UniProt P15391 20-291)
T2 construct: bought protein; also called recombinant human CD19-His; CD19 full-length protein; not shown: His tag
T2 sequence (looked up): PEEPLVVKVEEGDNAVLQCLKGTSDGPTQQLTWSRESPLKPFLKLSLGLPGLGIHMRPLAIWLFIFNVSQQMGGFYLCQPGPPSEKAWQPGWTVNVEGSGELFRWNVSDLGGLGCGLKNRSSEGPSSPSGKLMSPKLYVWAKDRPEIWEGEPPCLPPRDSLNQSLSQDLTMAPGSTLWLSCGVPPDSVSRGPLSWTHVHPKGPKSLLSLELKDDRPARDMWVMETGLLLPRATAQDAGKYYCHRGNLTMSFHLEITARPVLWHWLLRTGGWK

B1: F6.2.9 (antibody, human IgG1, V domains shown)
VH: QVQLQQSGAELVKPGASVKISCKASGYAFSSYWMNWVKQRPGKGLEWIGQIYPGDGDTNYNGKFKGKATLTADKSSSTGYMQLSSLTSEDSAVYFCARSRITSVVDWYFDVWGTGTTVTVSS
VL: QIVLSQSPAILSASPGEKVTMTCRASSSVSYMHWYQQKPGSSPKPWIYATSNLASGVPARFSGSGSGTSYSLTISRVEAEDAATYYCQQWSSNPPTFGAGTKLELK
notes: human-murine chimeric antibody, human IgG1 constant
B2: F6.12.12 (antibody, human IgG1, V domains shown)
VH: DVQLQESGPGLVKPSQSLSLTCSVTGYSITSGYYWIWIRQFPGNKLEWMGYISYDASNKYKPSLKNRISITRDTSKNQFFLKLNSVTAEDTATYFCAREDLRGYFDVWGTGTSVTVSS
VL: DIVLTQSPASLAVSLGRRATISCRASQSVSTSGFSYMHWYQQKPGQPPNLLIKYASILQSGVPARFSGSGSGTDFILNIHPVEDVDTATYYCQHSWGIPFTFGSGTKLEIK
notes: as for B1
B3: F3.114.12 (antibody, human IgG1, V domains shown)
VH: DVQLQESGPGLVKPSQSLSLTCSVTGYSITSGYDWNWIRQFPGNKLEWMGYISYDGKNNYNPSLRNRISITRDTSKNQFFLKLNSVTTEDTATYYCARRDLRGYFDVWGTGTTVTVSS
VL: DIVLTQSPATLSVTPGDRVSLSCRASQSISNYLHWYQQKSHESPRLLIKYASLSISGIPSRFSGSGSGTDFTLSINSVETEDFGVYFCQQSNSWPLTFGAGTKLELK
notes: as for B1
B4: F3.5.1 (antibody, human IgG1, V domains shown)
VH: QAQLQQSGPELVKPGASVKISCKASGYAFSGSWMNWVQQRPGKGLEWIGRIYPGDGDTYYNGKFKDKAILTADKSSSTAYMQLSSLTSEDSAVYFCAQLRYRYVMDYWGQGTSVTVSS
VL: DIVLTQSPASLAVSLGQRATISCRASESVSIHGSHLMHWYQQKPGQPPRLLIYAASNLESGVPARFSGSGSETDFTLNIHPVEEEDAATYFCQQGIKDPYTFGGGTKLEIK
notes: as for B1
B5: F3.40.14 (antibody, human IgG1, V domains shown)
VH: B4 VH with N61S, K74T, Y101S, T112A
VL: B4 VL with S34T, K97D
notes: as for B1
B6: F3.109.1 (antibody, human IgG1, V domains shown)
VH: EVQLQQSGAELVRPGSSVKMSCKTSGYTFTSYGINWVKQRPGQGLEWIGYIYIGNDYTEFNEKFKGKATLTSDTSSSTAYMQLSSLTSEDSAIYFCARFYSNSDPMDYWGHGTSVTVSS
VL: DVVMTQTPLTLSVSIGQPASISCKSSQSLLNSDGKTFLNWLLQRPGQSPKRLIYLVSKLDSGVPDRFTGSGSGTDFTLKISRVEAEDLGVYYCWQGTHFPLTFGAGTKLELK
notes: as for B1
B7: F4.272.13 (antibody, human IgG1, V domains shown)
VH: QVQLKESGPGLVAPSQSLSITCTVSGFSLTDYGVSWIRQPPGKGLEWLGVIWGSETTFYNSALKSRLSISKDNSKSQLFLQMNSLQADDTAIYYCAKHHYYGGSFSMDYWGQGTSVTVSS
VL: DIQMTQTTSSLSASLGDRVTISCRASQDINNYLNWYQQKPDGTVKFLIYYTSRLHSGVPSRFSGSGSGTDYSLTISDLEQEDIATYFCQQGNTLPYTFGGGTKLEIK
notes: as for B1
B8: F2.15.26 (antibody, human IgG1, V domains shown)
VH: QVQLKESGPGLVAPSQSLSITCTVSGFSLTDYGVSWIRQSPGKGLEWLGVIWGSGDTYYNSVLESRLSINKDNSKNQVFLKMNSLQTDDAAMYFCAKHSYYGGSFAMDYWGQGTSVTVSS
VL: B7 VL with N30S, F46L, D77N, N92K, Y96W
notes: as for B1
B9: F5.10.6 (antibody, human IgG1, V domains shown)
VH: DVQLQESGPGLVKPSQSLSLTCSVTDYSITSGYYWTWIRQFPGNKLEWMGYISYDGSTNYNPSLKNRFSITRDTSKNQFFLKLNSVIIEDTATYYCARDRMSTTWYFDVWGTGTTVTVSS
VL: DIVLTQSPASLAVSLGQRATISCRASESVDNYGISFMHWYQQKPGQPPKLLIYRASKTESGIPARFSGSGSRTDFTLTINPVETDDVATYYCQQSNKYPRTFGGGTKVEIK
notes: as for B1
B10: F3.13.2 (antibody, human IgG1, V domains shown)
VH: DVQLQESGPGLMKPSQSLSLTCSVTGYSITSGYYWNWIRQFPGNKLEWMGYISYDGSNNYNPSLKNRFSITRDTSKNQFFLKLNSVTTEDTATYYCARRKLTGGPYFDYWGQGTTLTVSS
VL: DIVLTQSPASLAVTLGQRATISCRASESVSFHGFHIMHWYQQKPGQPPKLLIYAASHLVSGVPDRFSGSGSETDFTLNIHPVEEEDAAAYFCQQSVEDPWTFGGGTKLEIK
notes: as for B1
B11: F6.5.20 (antibody, human IgG1, V domains shown)
VH: QVQLQQPGAELVKPGASVKLSCKASGYTFTSYWMQWVKQRPGQGLEWIGEIDPSDSYTNYNQKFKGKASLTVDTSSSTAYMQLSSLTSEDSAVYYCARWGLLRNYYVMDYWGQGTSVTVSS
VL: EIVLTQSPTTMAASPGEKITITCSASSSISSNYLHWYQQKPGFSPKLLIYRTSNLASGVPARFSGSGSGTSYSLTIGTMEAEDVATYYCQQGSSIPRMLTFGAGTKLELK
notes: as for B1
B12: F1-mab003 (antibody, human IgG1, V domains shown)
VH: EVQLQQSGPELVKPGASVKMSCKASGYTFTDYVMHWVRQTPGQGLEWIGYFNPYNDGTNYNEKFKVKATLTSDKSSTTAYMELSSLTSEDSAVYYCARGVYYYGRDFDYWGQGTTLTVSS
VL: DVVLTQTPLSLPVSLGDQASISCRSSQSLENSNGNSYLNWYLQKPGQSPQLLIYRVSNRFSGVLDRFSGSGSGTDFTLKISRVEAEDLGVYFCLQITHVPWTFGGGTKLEIK
notes: as for B1
B13: F3.3.10 (antibody, human IgG1, V domains shown)
VH: DVQLQESGPGLAKLSQSLSLTCSVTGYSITSGYYWNWIRQFPGNKLEWMGHISYDGNNNYNPSLKNRISITRDTSKNQFFLKLNSVTTEDTATYYCARENYSNYYFDYWGQGTTLTVSS
VL: DIVLTQSPASLAVSLGQRATISCRASQSVSKSSYTYIHWYQQKPGQPPKLLIKYASILQSGVPARFSGSGSGTDFTLNFHPVEEEDTATYYCQHSWEIPYTFGGGTKLEIK
notes: as for B1
B14: F4.276.12 (antibody, human IgG1, V domains shown)
VH: EIQLQQSGPELVKPGASVKVSCKASGYAFSAYNMYWVKQSHGKSLEWIGYIDPYNGGTNYNQKFKGKATLTVDKSSSTAYMHLNSLTSEDSAVYYCARDGYEVTYWGQGTLVTVSA
VL: QIVLTQSPALMSASLGEEITLTCSASSSVTYMHWSQQKSGTSPRLLIYSTSNLASGVPSRFSGSGSGTFYSLTISSVEAEDAADYYCHQWSSYPWTFGGGTKLEIK
notes: as for B1

biological target: T1, human CD19 exon1-3-His tag protein; experiment: ELISA on coated human CD19 exon 1-3-His
Procedure: Human CD19-his protein (purchased from ACROBiosystems, catalog number: CD9-H52H2) was diluted with PBS to a final concentration of 4 μg/mL, and then added to a 96-well ELISA plate at 100 μl/well. The plate was sealed with a plastic film and incubated overnight at 4° C., the plate was washed 2 times with PBS the next day, and then a blocking solution [PBS+2% (w/w) BSA] was added for blocking at room temperature for 2 h. The blocking solution was poured off, and 100 nM gradiently diluted CD19 chimeric antibody or control antibody was added at 50 μl/well. After incubation at 37° C. for 2 h, the plate was washed 3 times with PBS. […] TMB substrate was added at 50 μl/well, and incubated at room temperature for 10 min, and then a stop solution (1.0 N HCl) was added at 50 μl/well. The OD450 nm values were read by an ELISA microplate reader (Multimode Plate Reader, EnSight, purchased from Perkin Elmer).
CD19 protein contains 4 exons in the extracellular region, in which exons 1-3 are located at the membrane-distal end and exon 4 is located at the membrane-proximal end. […] To identify the distribution of antigen binding epitopes of the chimeric antibodies, human CD19 exon 1-3-His (membrane-distal end) was used to coat at 2 μg/mL according to the ELISA method in example 5.1.

Binder	binding result	EC50 (read off the curve) [nM]
B1	no binding (tested: 100 nM)	–
B2	no binding (tested: 100 nM)	–
B3	no binding (tested: 100 nM)	–
B4	no binding (tested: 100 nM)	–
B5	no binding (tested: 100 nM)	–
B6	–	~0.1
B7	no binding (tested: 100 nM)	–
B8	no binding (tested: 100 nM)	–
B9	no binding (tested: 100 nM)	–
B10	no binding (tested: 100 nM)	–
B11	no binding (tested: 100 nM)	–
B12	no binding (tested: 100 nM)	–
B13	no binding (tested: 100 nM)	–
B14	no binding (tested: 100 nM)	–

biological target: T2, Human CD19-his protein; experiment: SPR Biacore, Ab captured on Protein A, CD19-His analyte
Procedure: A sample buffer and a running buffer were HBS-EP+ (10 mM HEPES, 150 mM NaCl, 3 mM EDTA and 0.05% surfactant P20) (GE Healthcare; BR-1006-69). The flow-through cell was set to 25° C. The sample block was set to 16° C. Both were pretreated with the running buffer. In each cycle, an antibody to be detected was first captured with a Protein A chip, and then a single concentration of CD19 antigen protein was injected. The binding and dissociation processes of the antibody and the antigen protein were recorded, and finally Glycine pH 1.5 (GE Healthcare; BR-1003-54) was used to complete chip regeneration. The binding was measured by injecting different concentrations of recombinant human CD19-His proteins in a solution for 240 s with a flow rate of 30 μl/min. The concentration started from 200 nM (see the detailed results for the actual concentration in the test) and was diluted at 1:1, making a total of 5 concentrations. The dissociation phase was monitored for up to 600 s and was triggered by switching from sample solution to running buffer. The surface was regenerated by washing with a 10 mM glycine solution (pH 1.5) for 30 s at a flow rate of 30 μl/min. Bulk refractive index difference was corrected by subtracting the response obtained from the goat anti-human Fc surface. Blank injection was also subtracted (=double reference). For calculation of apparent KD and other kinetic parameters, Langmuir 1:1 model was used.

Binder	Kd [nM]	koff [s⁻¹]	kon [M⁻¹ s⁻¹]
B1	21.7	0.0033	152000
B2	1.46	0.000245	167000
B3	6.03	0.000465	77000
B4	0.543	8.47e-05	156000
B5	1.7	0.000143	84300
B6	5.67	0.00108	190000
B7	0.294	6.51e-05	221000
B8	0.839	0.000229	273000
B9	1.84	0.000151	82100
B10	8.13	0.000526	64700
B11	5.28	0.00187	355000
B12	0.247	0.000111	450000
B13	8.47	0.000621	73400
B14	3.33	0.00081	243000
